The record followed here is the domain aggregation screens of Martell et al. (2025).
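Note: 20 min heating vs room temperature control held 20 min.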

The data set is described as follows: soluble fraction after stress (log2 fold change); higher = more stays soluble; pooled small domains, quantitative proteomics. To be noted: stress: 75 degC.
Regarding “HMVGAEDISKPMNLGALMRTAHAFGASFFFTINAHPKVRHAYNSDTSRSFDHMPYYPWDTMEE”, the “soluble fraction (log2)” value was found to be 0.151.

As for “HMVGDLPPQELRVFELIGDGLSNREIADEMILAEKTIKNYVTSLLQKLGMQRRTEAAAFAARLDER”, the “soluble fraction (log2)” value was -0.0289. In the case of “HMVGDMLTQKDSEGLTAYLYQQGIISQREMLLLNGILKDRVLTGMEKGQRDSVRASMVQHLLAMLNMM”, the “soluble fraction (log2)” value is -1.94.

Regarding “HMVGEQISYIPLKFATASEVVKSLTSMFQQQKGIAPIRIVAEERTNAILLLASEADTARVKNLIAMMDKGV”, the “soluble fraction (log2)” value was -2.15. On to “HMVGGIAIGQFNVPRGSVKVTAGGRLLQEGLDYTVNYQAGRVQILDESLKNSNVPIEISTESNS”, for which the “soluble fraction (log2)” value came out at 0.106.

For the sequence “HMVGMDRYFKIKNIKDSSAAFERDYILHFLKENDWMVSKTAQMIGLERTTLYKKIKQLGLASMLEN”, the “soluble fraction (log2)” value was -3.24.

Regarding “HMVGQIISNARKQEKMTQSELAEKVGTNKTYISRIEKGVIEPGVGLFFRIIDALGLKIEIVKP”, the “soluble fraction (log2)” value was -2.07. Next, “HMVHSEDLQDHKYVSQLGEVFLKENPNYENIKKSWGDHMVVIKKFGRYPHRNKILNRKSTPEELEFLKG”: -0.0435; “HMVILPGEKMVVKIVQPGKEKGQGVGYLADGTMIVVDSGDKMIGQDVPTEITRVFQTVAGKMLFAVPVD”: -0.73; “HMVIMDLIVNGEPKYVVGEQLHLILDELGYSGKHFVVELNGEILSKEAYTTTKLTAADRLEIVSFVGG”: -3.23. Regarding “HMVITATYTDFMDALEADEVKQVQFSSTEINYTIEKGGHVQYFKTGVVDNPQLPQILREKGVTYAAEIP”, the “soluble fraction (log2)” value was -0.512. In the case of “HMVITDPFFLEPENLVKDAVALMEKYRISGVPITKKGKLVGILTNRDLRFESNYEQPIANVMS” it was 0.137. Next, “HMVITISEADVSGTYTKSITQGDWKYIRTWTPFEDERLYDLAKDPMELRDLAPAAPSKLAELRELLSALVS”: -1.4.

As for “HMVIVMRKDADAASIEKVVSEVKSRGFMPHVSEGESRTLIGAIGPAPTEELREHFAGLAGVETVVRITK”, the “soluble fraction (log2)” value was -0.533. Next, “HMVKDIEFSLPLEQDYYKVLISVKDSQGKRQVYEELHRAGDTVYAAVRYYGSGELEIHLNGKFYKTIK”: -0.868.

On to “HMVKDLEIETIRLNNLLASDAEEVLKSLGGAKPTYKAVAVPGSNSLVIEGTKADLIKLKSIINALEDGS”, for which the “soluble fraction (log2)” value was found to be 0.00865.

In the case of “HMVKETNYSFFLKQIDAGTVEQVQIEDTEIKFKVSTADGKEQVYSTVRVEDPDLVDRLYSKGNIDFTGN”, the “soluble fraction (log2)” value was -0.0797. Next, “HMVKIIHYEVYANRGDGWKLVDQFSADQRQEAVNLAKEIETEDQVAVKIIREIFDVQDNTYQESVEYIG”: -1.59; “HMVKLDDLTGQDKATAEATITNSGLKYSEQQEFSDEVEAGKVIRTDPGAGTSSLKAGDTVTVYVSRGPEN”: 0.215; “HMVKNYYEILEVDKKASPEVIEKAYKTLAKKYHPDLQEAENNGQYEEKMKEINEAYSVLSDEFKRRTYDEQ”: 0.123. Next, “HMVKSYEVPDVSNLTVLEAEAKLQEMGFEIDEEQKEISSSDIESGRVVKTSPQAGSKRKEGAIITLYVSSG”: 0.65; “HMVKTANVAYSEFLKLVESDNISDVSIVGRTITGHLDDGTKFSTYTPPNDPSLIDKLTRKNVIIKSAPE”: 0.0585; “HMVKVEVKPNVLQWVIKRMDNFDRLKDQFPNIDKWINQESQPTLKQLEKLAKMTAVPLGYFFLPNPPEEK”: -1.12. In the case of “HMVLELRIGQIVRGVLLQLVGEREGIVSVGGVPVRARLEAEIPLGRGVMLQVQPGSDANNILLKPV”, the “soluble fraction (log2)” value was -3.01. Next, “HMVLENLKKFIDSKGISVSAFEKSIGMSNNSFRKSLNSGGHIGSDKLENILKIYPELNPVWLLQGEGEML”: -0.589; “HMVLGSSVAMGQKIGDSDLTWVEVPLSSAFDRFLSEPEWRGSSDLVAARLLEAGVFLTEDDVVE”: 0.0533. Next, “HMVLLGAAIRELRIQKGITIEELAEMSGLSTGLISKIERDLGNPSISSLRKISRALGVPTAFFFA”: -3.28; “HMVLSKGAKELLDFIMREGEVTTSKVVQKFGGSAQNASAKLKKLYATGLILGSKAVAESGGLEFVYKA”: 0.256. Next, “HMVLSVRERMGIVLEKVNTETFTDFKELFTVEEGRAGAIVSLLAILQLMKDSLIQLVQNEPNGPIYVKAA”: -0.879; “HMVLTSFHDNFPKTGTTYTVRSGDTISGIATKFGSTRDWIQNANEISHPKYLQVGRTLFIPH”: -0.302; “HMVMATPHNTAKAGDIAKTVIMPGDPLRAKYIADNYLDNAVQFNVVRNIYGYTGVYRGTDISVMASGM”: 0.212. For the sequence “HMVMETLAERINTALQTKGLSVNALARRVGVSYPAMRKITKGETLNPKFLFEIAEALGVSVEWLKTGEGSP”, the “soluble fraction (log2)” value is -1.34.

As to “HMVMNKQEFLKILRDTLQSQLSSRETENHVEYYRTYIEEQMREGKTEIEILDVLGDPRLIARTILET”, the “soluble fraction (log2)” value is -0.193. In the case of “HMVMSTDAELILEYLAKHQGEMEITDKSSPELIMDTFNMSKGAFKRALGSLYKSKTVVIESTKVLLNT” it was -1.44; in that of “HMVNDQSIYASEGYVHIRSGKPVSLRIYTILGALYRHEERLVGDHVIALPRGLYIVVLNHTAKKIMV”, -0.657.

As to “HMVNEALDEFFVGLKNLYESATGKPAIAGAHFDGEPKTDFEKLMYLGYQIIRPAQAYPSALKAYERAIARS”, the “soluble fraction (log2)” value was -0.145. “HMVNHEERKRLIAEATWRTISHVGIEQASVRTIAKEAGLSLGALRYYFTTQEELLRFSMQLVQERV”: the “soluble fraction (log2)” value is -0.0767. Next, “HMVNIEAEVGRRLRQLRARRGLSLRALADLSGLNVNTLSLIENSKTSPSVSTLQQLARSLQVPITTFFESD”: -1.36; “HMVNKQERTYTILRDRIHSGSFAPLERLNIDALARELGVSPIPVREALRRLEAEGWVRFTPNVGAVVSP”: -0.509. In the case of “HMVNLLVTPLEELEINFRTLRALRKYNIYQLEDLLRFIKYNGFDALRIVPGMGIKSTEQLYEKLKDKNI” it was -0.112; in that of “HMVNTVEVQGNTIYSAEEIRSASGIQKGDNLFTLNKEAAAGSIKASLPYVETVSIIRFLPDKIVIEVKE”, -0.57.

With “HMVNVLKNSTVIDLVKNNLSDALIISLIRRAKVDFSLMTDDVIELSGKGVSPAVIMEMRQAMIRQASEIQN”, the “soluble fraction (log2)” value is -0.318.

For “HMVNVTEAIDLENGTGKLSGTFNHEPKSAEEIIFLLKIDTNKWKLSQYWNKQMGDHWRVSALISQI”, the “soluble fraction (log2)” value is -2.82. Next, “HMVPAMEVALEDARRAIEQVVSGERTSVQLSSQEAMIRKLQHQMAKDANLFSRSSGVEPQRRVTIYTN”: 0.0142; “HMVPHQPRVWTNTAGKTITAAFVRFNAAGRKVSLKLEKGRQVELPLASLSGNDVDWIKEHVPEAMSNQE”: -1.06; “HMVPISGADFEKLSDYILQKAGAGSIQVKELLAGLKGMHEKNLWKAIDYLLAEEKIRIDKGGNISVK”: -0.322. Next, “HMVPQAVQDIKAYLASGALPYIGPATAKKIVAMFGSDALDVIAEHPEQLTAIRGLNEEKANAIHQEFRRQF”: -0.259; “HMVPSSHNIAQKVKQIKINDLWLDVRERYIYLKNLYLSHPLEKDHPSFIVYVEAVNQIYNQYF”: -0.0707; “HMVQDDLRELEGISTELLAKLADAGITNRDDLADLAIDELVAITGQSEDDAKALIMKAREHWFAGDA”: 0.0246.

As to “HMVQIIQLQGTDKRLYELVAPLVMNPEILKQNYNYPFRTSEDFVWFVAVDKKKVIGFIPVEEKKKEYVI”, the “soluble fraction (log2)” value was -0.108. Next, “HMVRKGEINFDQLSVRARNALRNMNILFEKEILKLTEYDLKSIPNLGVKTTNELLSYIKRLQTNQKEE”: -1.47; “HMVRRSERLHALTESLRRSGNRGRTAEQLATEFEVSVRTIKRDLVALEASGLPLWSRPGPGGGYGLLS”: -0.953. In the case of “HMVRTIKILGIKHNINLYYKNVKVPTMNVKNQTLEIILPNKYKKFQEEQILKVLTQKLYDKIAETEIEKIK” it was -1.11. Next, “HMVSAEQNTLEFIKENVKEDVIEDDIEFYKSLLEDWSVEVDNSSKLLDPGNNNSLLAVIAYSIENEL”: 0.232.

On to “HMVSDAWITGKVKSQLLADDVTPGMKIDVDTEDRIVSLKGTVPSLTARNEAIRIASHTKGVRTVDADELIV”, for which the “soluble fraction (log2)” value was 0.17. Next, “HMVSFAEQASDWLAHFDRLGDVGPDTTLTDLTARDAEFSAWVNEGIHHRVAFLETLAAWHRTER”: -0.627; “HMVSGLEILKIQVQDHPSDWRWALLLARTHYENGNREAAVRTLRPLQRLHPDRLEVMTLWALLA”: -0.194. Next, “HMVSGSPTVDILMQRGLEYQQQENLEAARDAFDRAINLKPDYAEAWNRRAVLFFNEGKYDEAIADLETAIT”: 0.136; “HMVSKEELANSIYENKTADELGNIVLRKGKYSGEMLRTIYVKDIGYLEWHSKQSYEYSNAVKWYLKKLE”: -1.37.

Turning to “HMVSLEEIINDLTSRIQTAVKMRFSDFVQNRKERVGVIVSFLGMLELVKQGIIDIKQEGHFADIEMETA”, the “soluble fraction (log2)” value was -0.347. Next, “HMVSLSENQKIVLESLNTAMSARELMEILNLSDISHFRRNILNPLLLEGLIVRTKPDKPKSSKQKYIKANF”: -1.69; “HMVSPEVEMLRAAVETMSERQKQVYELHYLRGFNVKETAAILGMSSPTVTAHKKRIMEIIKKFFE”: -1.46. Next, “HMVSPFQQQIADKVHNEIIAAKFNYDNATNENERLLAQLQAKKARELANQYGLDMSSYGADTTAERS”: 0.61. Next, “HMVSSAEQQARDKESGMILVQEAGGPDKARALVEKMRQDIRNPALDGTRRQMLRGHVARIELALAELETG”: -0.0254; “HMVSVGDIFAGRIISNENGHLLLQLLDGSKISAQTVTDLKYNIGDVLNLEIIEEKQGLIFVRQT”: -2.05. In the case of “HMVSVLGRRIKELRLQNSMTQMQLAKKLGYKGNSLVAGWELGKNYPSVSSIKRLSEIFDTDLMKYVG”, the “soluble fraction (log2)” value was -2.53. Next, “HMVTDTGAIEKVIDEVIAANPKQVQEIADQRAAGHEKPKTLGWLVGQIMKASGGKVNPAAVNEILLKKLG”: 0.0887; “HMVTFDEISQSLVRDVAARRSLSVQTLHAMVDRYNAGSSINAVANQYGIDRLKLREILIELGVHVAT”: -2.4.

For “HMVTLQEVKQYLRIDFEEEDPLLLSLLATAKQQVMNVGRMDEAQLSEHEDTARTAILYAVSYLYENRN”, the “soluble fraction (log2)” value was -1.82.
